According to patent publication EP4782541A1 (Nanjing Probio Biotech Co., Ltd., dated 2026):

B1: BsAb-17 (bispecific antibody, human IgG1, lambda)
chain: EVQLVESGGGLVQPGGSLRLSCAASGRSFSSFQMGWFRQAPGKEREFVAASGWSGGPTYYWDSVIGRFTISTDNSKNTLYLQMNSLRAEDTAVYYCYEDRVLSGRHVRYWGQGTLVTVSSDKTHTCPPCPAPESTRGPSVFLFPPKPKDTLMISRTPEVTCVVVDVSHEDPEVKFNWYVDGVEVHNAKTKPREEQYNSTYRVVSVLTVLHQDWLNGKEYKCKVSNKALPAPIEKTISKAKGQPREPQVCTLPPSRDELTKNQVSLSCAVKGFYPSDIAVEWESNGQPENNYKTTPPVLDSDGSFFLVSKLTVDKSRWQQGNVFSCSVMHEALHNHYTQKSLSLSPGK
heavy: EVQLVESGGGLVQPGGSLRLSCAASGRSFSSFQMGWFRQAPGKEREFVAASGWSGGPTYYWDSVIGRFTISTDNSKNTLYLQMNSLRAEDTAVYYCYEDRVLSGRHVRYWGQGTLVTVSSGGGGSGGGGSGGGGSEVQLVESGGGLVQPGRSLRLSCAASGFTFNTYAMNWVRQAPGKGLEWVARIRSKYNNYATYYADSVKDRFTISRDDSKSIAYLQMNSLKTEDTAVYYCVRHGNFGNSYVSWFAYWGQGTLVTVSSASTKGPSVFPLAPSSKSTSGGTAALGCLVKDYFPEPVTVSWNSGALTSGVHTFPAVLQSSGLYSLSSVVTVPSSSLGTQTYICNVNHKPSNTKVDKKVEPKSCDKTHTCPPCPAPESTRGPSVFLFPPKPKDTLMISRTPEVTCVVVDVSHEDPEVKFNWYVDGVEVHNAKTKPREEQYNSTYRVVSVLTVLHQDWLNGKEYKCKVSNKALPAPIEKTISKAKGQPREPQVYTLPPCRDELTKNQVSLWCLVKGFYPSDIAVEWESNGQPENNYKTTPPVLDSDGSFFLYSKLTVDKSRWQQGNVFSCSVMHEALHNHYTQKSLSLSPGK
light: QTVVTQEPSLTVSPGGTVTLTCRSSTGAVTTSNYANWVQQKPGQAPRGLIGGTNKRAPGVPARFSGSLLGGKAALTLSGVQPEDEAEYFCALWYSNLWVFGGGTKLTVLGQPKAAPSVTLFPPSSEELQANKATLVCLISDFYPGAVTVAWKADSSPVKAGVETTTPSKQSNNKYAASSYLSLTPEQWKSHRSYSCQVTHEGSTVEKTVAPTECS
B2: BsAb-2 (bispecific antibody, human IgG1, lambda)
chain: EVQLVESGGGLVQPGGSLRLSCAASYFISRFYAVGWYRQAPGKQRELVARISSGGWTYYADSVKGRFTISIDNSKNTLYLQMNSLRAEDTAVYYCNARNLWGQGTLVTVSSDKTHTCPPCPAPESTRGPSVFLFPPKPKDTLMISRTPEVTCVVVDVSHEDPEVKFNWYVDGVEVHNAKTKPREEQYNSTYRVVSVLTVLHQDWLNGKEYKCKVSNKALPAPIEKTISKAKGQPREPQVCTLPPSRDELTKNQVSLSCAVKGFYPSDIAVEWESNGQPENNYKTTPPVLDSDGSFFLVSKLTVDKSRWQQGNVFSCSVMHEALHNHYTQKSLSLSPGK
heavy: EVQLVESGGGLVQPGRSLRLSCAASGFTFNTYAMNWVRQAPGKGLEWVARIRSKYNNYATYYADSVKDRFTISRDDSKSIAYLQMNSLKTEDTAVYYCVRHGNFGNSYVSWFAYWGQGTLVTVSSASTKGPSVFPLAPSSKSTSGGTAALGCLVKDYFPEPVTVSWNSGALTSGVHTFPAVLQSSGLYSLSSVVTVPSSSLGTQTYICNVNHKPSNTKVDKKVEPKSCDKTHTCPPCPAPESTRGPSVFLFPPKPKDTLMISRTPEVTCVVVDVSHEDPEVKFNWYVDGVEVHNAKTKPREEQYNSTYRVVSVLTVLHQDWLNGKEYKCKVSNKALPAPIEKTISKAKGQPREPQVYTLPPCRDELTKNQVSLWCLVKGFYPSDIAVEWESNGQPENNYKTTPPVLDSDGSFFLYSKLTVDKSRWQQGNVFSCSVMHEALHNHYTQKSLSLSPGK
light: QTVVTQEPSLTVSPGGTVTLTCRSSTGAVTTSNYANWVQQKPGQAPRGLIGGTNKRAPGVPARFSGSLLGGKAALTLSGVQPEDEAEYFCALWYSNLWVFGGGTKLTVLGQPKAAPSVTLFPPSSEELQANKATLVCLISDFYPGAVTVAWKADSSPVKAGVETTTPSKQSNNKYAASSYLSLTPEQWKSHRSYSCQVTHEGSTVEKTVAPTECS
notes: also called BsAb-02
B3: BsAb-10 (bispecific antibody, human IgG1, lambda)
chain: EVQLVESGGGLVQPGGSLRLSCAASYFISRFYAVGWYRQAPGKQRELVARISSGGWTYYADSVKGRFTISIDNSKNTLYLQMNSLRAEDTAVYYCNARNLWGQGTLVTVSSDKTHTCPPCPAPESTRGPSVFLFPPKPKDTLMISRTPEVTCVVVDVSHEDPEVKFNWYVDGVEVHNAKTKPREEQYNSTYRVVSVLTVLHQDWLNGKEYKCKVSNKALPAPIEKTISKAKGQPREPQVCTLPPSRDELTKNQVSLSCAVKGFYPSDIAVEWESNGQPENNYKTTPPVLDSDGSFFLVSKLTVDKSRWQQGNVFSCSVMHEALHNHYTQKSLSLSPGK
heavy: EVQLVESGGGLVQPGGSLRLSCAASYFISRFYAVGWYRQAPGKQRELVARISSGGWTYYADSVKGRFTISIDNSKNTLYLQMNSLRAEDTAVYYCNARNLWGQGTLVTVSSGGGGSGGGGSGGGGSEVQLVESGGGLVQPGRSLRLSCAASGFTFNTYAMNWVRQAPGKGLEWVARIRSKYNNYATYYADSVKDRFTISRDDSKSIAYLQMNSLKTEDTAVYYCVRHGNFGNSYVSWFAYWGQGTLVTVSSASTKGPSVFPLAPSSKSTSGGTAALGCLVKDYFPEPVTVSWNSGALTSGVHTFPAVLQSSGLYSLSSVVTVPSSSLGTQTYICNVNHKPSNTKVDKKVEPKSCDKTHTCPPCPAPESTRGPSVFLFPPKPKDTLMISRTPEVTCVVVDVSHEDPEVKFNWYVDGVEVHNAKTKPREEQYNSTYRVVSVLTVLHQDWLNGKEYKCKVSNKALPAPIEKTISKAKGQPREPQVYTLPPCRDELTKNQVSLWCLVKGFYPSDIAVEWESNGQPENNYKTTPPVLDSDGSFFLYSKLTVDKSRWQQGNVFSCSVMHEALHNHYTQKSLSLSPGK
light: QTVVTQEPSLTVSPGGTVTLTCRSSTGAVTTSNYANWVQQKPGQAPRGLIGGTNKRAPGVPARFSGSLLGGKAALTLSGVQPEDEAEYFCALWYSNLWVFGGGTKLTVLGQPKAAPSVTLFPPSSEELQANKATLVCLISDFYPGAVTVAWKADSSPVKAGVETTTPSKQSNNKYAASSYLSLTPEQWKSHRSYSCQVTHEGSTVEKTVAPTECS
B4: BsAb-3 (bispecific antibody, human IgG1, lambda)
chain: QVQLVESGGGVVQPGGSLRLSCAASGFVLRVNTVSWYRQAPGKQRELVALITSESNEYYDDSVKGRFTISRDNAKNTIYLHMNSLKPEDTGVYFCNFITTWGQGTQVTVSSDKTHTCPPCPAPESTRGPSVFLFPPKPKDTLMISRTPEVTCVVVDVSHEDPEVKFNWYVDGVEVHNAKTKPREEQYNSTYRVVSVLTVLHQDWLNGKEYKCKVSNKALPAPIEKTISKAKGQPREPQVCTLPPSRDELTKNQVSLSCAVKGFYPSDIAVEWESNGQPENNYKTTPPVLDSDGSFFLVSKLTVDKSRWQQGNVFSCSVMHEALHNHYTQKSLSLSPGK
heavy: EVQLVESGGGLVQPGRSLRLSCAASGFTFNTYAMNWVRQAPGKGLEWVARIRSKYNNYATYYADSVKDRFTISRDDSKSIAYLQMNSLKTEDTAVYYCVRHGNFGNSYVSWFAYWGQGTLVTVSSASTKGPSVFPLAPSSKSTSGGTAALGCLVKDYFPEPVTVSWNSGALTSGVHTFPAVLQSSGLYSLSSVVTVPSSSLGTQTYICNVNHKPSNTKVDKKVEPKSCDKTHTCPPCPAPESTRGPSVFLFPPKPKDTLMISRTPEVTCVVVDVSHEDPEVKFNWYVDGVEVHNAKTKPREEQYNSTYRVVSVLTVLHQDWLNGKEYKCKVSNKALPAPIEKTISKAKGQPREPQVYTLPPCRDELTKNQVSLWCLVKGFYPSDIAVEWESNGQPENNYKTTPPVLDSDGSFFLYSKLTVDKSRWQQGNVFSCSVMHEALHNHYTQKSLSLSPGK
light: QTVVTQEPSLTVSPGGTVTLTCRSSTGAVTTSNYANWVQQKPGQAPRGLIGGTNKRAPGVPARFSGSLLGGKAALTLSGVQPEDEAEYFCALWYSNLWVFGGGTKLTVLGQPKAAPSVTLFPPSSEELQANKATLVCLISDFYPGAVTVAWKADSSPVKAGVETTTPSKQSNNKYAASSYLSLTPEQWKSHRSYSCQVTHEGSTVEKTVAPTECS
notes: also called BsAb-03

Target: T1, human CD3 (on Jurkat cells) (human, UniProt P07766 23-207; P09693 23-182; P04234 22-171)
T1 construct: whole, on cells
T1 sequence (P07766 23-207, chain 1 of 3): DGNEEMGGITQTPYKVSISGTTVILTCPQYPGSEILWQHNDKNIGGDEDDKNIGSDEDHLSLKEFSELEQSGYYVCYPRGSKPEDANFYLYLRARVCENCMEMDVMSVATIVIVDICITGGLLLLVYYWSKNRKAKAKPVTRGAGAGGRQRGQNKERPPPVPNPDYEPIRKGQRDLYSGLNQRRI
T1 sequence (P09693 23-182, chain 2 of 3): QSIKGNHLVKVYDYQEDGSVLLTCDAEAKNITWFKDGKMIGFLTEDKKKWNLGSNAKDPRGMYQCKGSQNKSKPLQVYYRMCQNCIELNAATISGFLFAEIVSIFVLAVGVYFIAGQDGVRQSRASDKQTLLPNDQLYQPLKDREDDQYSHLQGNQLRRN
T1 sequence (P04234 22-171, chain 3 of 3): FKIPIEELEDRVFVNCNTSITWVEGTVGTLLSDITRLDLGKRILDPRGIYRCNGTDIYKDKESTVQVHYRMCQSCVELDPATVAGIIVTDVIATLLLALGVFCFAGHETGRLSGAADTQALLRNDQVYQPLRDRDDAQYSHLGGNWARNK
Assay: flow cytometry on Jurkat cells expressing human CD3

In order of falling EC50:
1. B4  6.66 nM
2. B1  4.02 nM
3. B3  2.84 nM
4. B2  0.329 nM
